{"source": "the nanobody polyreactivity screen of Harvey et al. (2022)", "data": [{"assay": "yeast display, Sf9 membrane polyspecificity reagent, FACS + sequencing; frameworks hold sequencing errors", "in_short": "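A synthetic nanobody library was expressed on Saccharomyces cerevisiae BJ5465 by galactose induction for 36–48 hours. The library was stained for 1 hour at 4 °C with 10% biotinylated, detergent-solubilized Sf9 membrane reagent and enriched with streptavidin microbeads before FACS. Low and high (top ~1%) gates were set on anti-HA fluorescence for expression and streptavidin fluorescence for reagent binding, and each polyreactivity label reflects the gate of origin.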", "values": [{"sequence": "QVQLVESGGGLVQAGGSLRLSCAASGNIFLRYAMGWYRQAPGKERELVAAISYSGGGSTYYADSVKGRFTISRDNAKNTVYLQMNSLKPEDTAVYYCAKVLTSRTQFFDYDYWGQGTQVSVSS", "polyreactivity (PSR sort gate)": "low polyreactivity"}, {"sequence": "QVQLVESGGGLVQAGGSLRLSCAASGNIFLYYAMGWYRQAPGKERELVADIDSSGASTYYADSVKGRFTISRDNAKNTVYLQMNSLKPEDTAVYYCATEDFRTDTGMYYWGQGTQVTVSS", "polyreactivity (PSR sort gate)": "low polyreactivity"}, {"sequence": "QVQLVESGGGLVQAGGSLRLSCAASGNIFLYYAMGWYRQAPGKERELVADIDSSGASTYYADSVKGRFTISRDNAKNTVYLQMNSLKPEDTAVYYGAKDSNRYSYYSPYDSWGQGTQVTVSS", "polyreactivity (PSR sort gate)": "low polyreactivity"}, {"sequence": "QVQLVESGGGLVQAGGSLRLSCAASGNIFPAYVMGGYRQAPGKDRELVAAITDSDGSTFYADSVKGRFTISRDNAKNTVYLQMNSLKAEDTAVYYCAAYSYRQGWGFGYWGQGTQVTVSS", "polyreactivity (PSR sort gate)": "low polyreactivity"}, {"sequence": "QVQLVESGGGLVQAGGSLRLSCAASGNIFPYYAMGWYRQAPGKERELVASITWSGGRTYYADSVKGRFTISRDNAKNTVYLQMNSLKPEDTAVYYCARRRVYRWYTGDYWGQGTQVTVSS", "polyreactivity (PSR sort gate)": "low polyreactivity"}, {"sequence": "QVQLVESGGGLVQAGGSLRLSCAASGNIFPYYAMGWYRQAPGKERELVAVISYGGGNTRYADSVKGRFTISRDNAKNTVYLQMNSLIPEDTAVYYCAARRWGAAPRPYEGYYWGQGSQVTVSS", "polyreactivity (PSR sort gate)": "low polyreactivity"}, {"sequence": "QVQLVESGGGLVQAGGSLRLSCAASGNIFQRYAMGWYRQAPGKERDLVAAISYSGARTYYADSVKGRFTISRDNAKNTDYLQMNSLKPEDTAVYYCATYGGLTKFRLAYDYWGQGTQVTVSS", "polyreactivity (PSR sort gate)": "high polyreactivity"}, {"sequence": "QVQLVESGGGLVQAGGSLRLSCAASGNIFRAYAMGWYRQAPGKERELVARISASGGSTYYADSVKGRFTISRDNAKNTVYLQMNSLKPEDTAVYYCAARVRVRLGRNWSSYYYWGQGTQVTVSS", "polyreactivity (PSR sort gate)": "high polyreactivity"}, {"sequence": "QVQLVESGGGLVQAGGSLRLSCAASGNIFRGYTMGWYRQAPGKERELVATITWNGVSTFYADSVKGRFTISRDNAKNTVYLEMNSLKPEDTAVYYCAAYYPSHDYSGFWSDTYEYWGQGTQVTVSS", "polyreactivity (PSR sort gate)": "low polyreactivity"}, {"sequence": "QVQLVESGGGLVQAGGSLRLSCAASGNIFRGYTMGWYRQAPGKERELVATITWNGVSTFYADSVKGRFTISRDNAKNTVYLQMNSLIPEETAVYYCPAYYPSHDYSGVWSDTYEYWGQGTQVTVSS", "polyreactivity (PSR sort gate)": "low polyreactivity"}, {"sequence": "QVQLVESGGGLVQAGGSLRLSCAASGNIFRINGMGWYRQAPGKERELVASITRSGSTYYADSVKGRFTISRDNANNTVYLKMNSLKPEDTAVYYCAADSRRYGVRFDYWGQGTQVTVSS", "polyreactivity (PSR sort gate)": "low polyreactivity"}, {"sequence": "QVQLVESGGGLVQAGGSLRLSCAASGNIFRKNAMGWYRQAPGKERELVAAISRRGGNTYYADSVKGRFTISRDNAKNTVYLQMNSLKPEDTAVYYCAADWSPTAASDYWGQGTQVTVSS", "polyreactivity (PSR sort gate)": "high polyreactivity"}, {"sequence": "QVQLVESGGGLVQAGGSLRLSCAASGNIFRPYTMGWYSQAPGKERQLVARISSGGSTNYADSVKGRFTISRDNAKNTVYLQMNSLKPEDTAVYYCAKRYGTVHSRYGYWGQGTQVTVSS", "polyreactivity (PSR sort gate)": "high polyreactivity"}, {"sequence": "QVQLVESGGGLVQAGGSLRLSCAASGNIFRRYAMGWYRQAPGKERELVAAISRGGTRTYYADSVKGRFTISRDNAKNTVYLQMNSLKPEDTAVYYCNAEVKTNYRIADYDYWGQGTQVTVSS", "polyreactivity (PSR sort gate)": "high polyreactivity"}, {"sequence": "QVQLVESGGGLVQAGGSLRLSCAASGNIFRYYVMGLYRQAAGKEREFVAAITSSGGSTYYADSVKGRFTISRDNAKKTVYLQMNSLKPEDTAVYYCAKDYWDPGWAEYDYWGQGTQVTVSS", "polyreactivity (PSR sort gate)": "low polyreactivity"}, {"sequence": "QVQLVESGGGLVQAGGSLRLSCAASGNIFSTYAIGWTRQAPGKERELVASISENGGSTYYADSVKGRFTISRDNAKNTVYLQMNSLKPDDTAVYYCAKGQLYSLFFQHDAPYRYGYWGQGTQVTVSS", "polyreactivity (PSR sort gate)": "low polyreactivity"}, {"sequence": "QVQLVESGGGLVQAGGSLRLSCAASGNIFSWYAKGWYRQAPGKERELVAAITSGGRTYYADSVKGRFTISRDNAKNTVYLQMNSLKPEDTAVYYCNAVSRLYNRRDYWVQGTQVTVSS", "polyreactivity (PSR sort gate)": "high polyreactivity"}, {"sequence": "QVQLVESGGGLVQAGGSLRLSCAASGNIFTYNTMGWYRQAPRKERELVAAISSGGSTYYADSVKGRFTISRDNAKNTVYLQMNSLKPEDTAVYYCNRRRWLWQTARGDYWGQGTQVTVSS", "polyreactivity (PSR sort gate)": "high polyreactivity"}, {"sequence": "QVQLVESGGGLVQAGGSLRLSCAASGNIFVRYAMGWYRQAPGKERELVAAISRGGRTNYADSVKGRFTISRDNAKNTVYLQMNSLKPEDTAVYYCAADVRYHFYYWGQGTQVTVSS", "polyreactivity (PSR sort gate)": "high polyreactivity"}, {"sequence": "QVQLVESGGGLVQAGGSLRLSCAASGNIFVWYDMGWYREAPGKERELVATITSSGGSTYYADSVKGRFTISRDNAKNTVYLQMNSLKPEDTAVYYCNALPYYRDDYWGQGTQVTVSS", "polyreactivity (PSR sort gate)": "low polyreactivity"}, {"sequence": "QVQLVESGGGLVQAGGSLRLSCAASGNIFWRYGMGWYRQAPGKERELVAAITSGGTGTYYADSVKGRFTISRDNAKNTVYLQMNSLKPEDTAVYYCAARRWTNHYFYGWFYYWGQGTQVTVSS", "polyreactivity (PSR sort gate)": "high polyreactivity"}, {"sequence": "QVQLVESGGGLVQAGGSLRLSCAASGNIFWWNAMGWYRQAPGKERELVAAITSDSTTYYADSVKGRFTISRDNAKNTVYLQMNSLKPEDTAVYYCNTVAYLRRFDKWGMNYWGQGTQVTVSS", "polyreactivity (PSR sort gate)": "low polyreactivity"}, {"sequence": "QVQLVESGGGLVQAGGSLRLSCAASGNIFYPNAMGWYRQAPWKERELVARISWRGVSTYYADSVKGRFTISRDNAKNNVYLQMNSLKPEDTEVYYCNVRPYYGRTRIKYDYWGQGTQVTVSS", "polyreactivity (PSR sort gate)": "high polyreactivity"}, {"sequence": "QVQLVESGGGLVQAGGSLRLSCAASGNIFYRYPMGWYRQAPGKEREMVAAISRSGGSTYYADSVKGRFTISRDNAKNSVYLQRNSLKPEDTAVYYCAAEYQGFWWYGDYDYWGQGTQVTVSS", "polyreactivity (PSR sort gate)": "high polyreactivity"}, {"sequence": "QVQLVESGGGLVQAGGSLRLSCAASGNIFYTNAMGWYRQAPGKERELVAAISGSGGRTYYADSVKGRFTISRDNAKNTVYLQMNSLKPEDTAVYYCNAVRREYYDRTYGYWGQGTQVTVSS", "polyreactivity (PSR sort gate)": "low polyreactivity"}, {"sequence": "QVQLVESGGGLVQAGGSLRLSCAASGNIFYVYAMGWYRQAPGKERELVAVISRNDGSTYYADSVKGRFTISRDNAKNTVYLQMNSLKPEDTAVYYCNAEWYFWGQGTQVTVSS", "polyreactivity (PSR sort gate)": "low polyreactivity"}, {"sequence": "QVQLVESGGGLVQAGGSLRLSCAASGNIISTYAMGWYRQAPGKERELVAAITSSSARTYYADSVKGRFTISRDNAKNTVYLQLNSLKPEDTAVYYCATRTGIRQDLVHLYRVYYWGQGTQVTVSS", "polyreactivity (PSR sort gate)": "high polyreactivity"}, {"sequence": "QVQLVESGGGLVQAGGSLRLSCAASGNILEYNAMGWYRQAPGKERELVAAISRGGITNYADSVKGRFTISRDNAKNTVYLQMNSLKPEDTAVYYCATRWIGYTSQWDHFEYDYWGQGTQVTVSS", "polyreactivity (PSR sort gate)": "low polyreactivity"}, {"sequence": "QVQLVESGGGLVQAGGSLRLSCAASGNILEYNAMGWYRQAPGKEREMVAAISRGGITNYADSVKGRFTISRDNAKNTVYLQMNCLKPEDTAVYYCATRWIGYTSQWDHFEYDYWGQGTQVTVSS", "polyreactivity (PSR sort gate)": "low polyreactivity"}, {"sequence": "QVQLVESGGGLVQAGGSLRLSCAASGNILIGNVMGWYRQAPGKERELVAAITSGGDTYYADSVKGRFTISRDNAKNTVYLQMNSLKPEDTAVYYCAADRPGQPKYEYWGQGTQVTVSS", "polyreactivity (PSR sort gate)": "low polyreactivity"}, {"sequence": "QVQLVESGGGLVQAGGSLRLSCAASGNILLFNAMGWYRQAPGKERELVATINQSGGRTYYADSVKGRFTISRDNAKNTVYLQMNSLKPEDTAVYYCAATYVYWTWGYDYWGQGTLVTVSS", "polyreactivity (PSR sort gate)": "low polyreactivity"}, {"sequence": "QVQLVESGGGLVQAGGSLRLSCAASGNILRGYAMGWYRQAPGKERELVAAINRGGGSTYYADSVKGRFTISRDNAKNTVYLQMNSLKPEDTAVYYCAARYPHRGYTFDYWGQGTQVTVSS", "polyreactivity (PSR sort gate)": "low polyreactivity"}, {"sequence": "QVQLVESGGGLVQAGGSLRLSCAASGNILRSYAMGWYRQAPGKERELVAAISADGSGTYYADSVKGRFTISRDNAKNTVYLQMNSLKPEDTAVYYCAAERYFWWYYDPENYWGQGTQVTVSS", "polyreactivity (PSR sort gate)": "high polyreactivity"}, {"sequence": "QVQLVESGGGLVQAGGSLRLSCAASGNIVDYYGMGWYIQAPGKERELVAAINVSGDSTYYADSVKGRFTISRDNAKNTVYLQMNSLKPEDTAVYYCAADYGWGSGFEYDYWGQGTQVTVSS", "polyreactivity (PSR sort gate)": "low polyreactivity"}, {"sequence": "QVQLVESGGGLVQAGGSLRLSCAASGNNFYRNAMGWSRQAPGKERELVAAINSGSSTKYADSVKGRFTISRDNAKNTVYLQMNSLKPEDTAVYYCAKRRYTAIWYGYWGQGSQVTVSS", "polyreactivity (PSR sort gate)": "high polyreactivity"}, {"sequence": "QVQLVESGGGLVQAGGSLRLSCAASGNNLLGYAMGWYRQAPGKEREWVAAISSSGGRTYYADSVKGRFTISRDNAKNTVYLQMNSLKPEDTAVYYCAAYTYSAGGYWGQGTQVTVSS", "polyreactivity (PSR sort gate)": "high polyreactivity"}, {"sequence": "QVQLVESGGGLVQAGGSLRLSCAASGNTFAGNAKGCYRQAPGKERELVAAISRSGVTTRYADSVKGRFTISRDNAKNTVYLQMNSLKPEDTAVYYCNADPRLRQTRDYWGQGTQVTVSS", "polyreactivity (PSR sort gate)": "high polyreactivity"}, {"sequence": "QVQLVESGGGLVQAGGSLRLSCAASGNTFAGNAMGWYRPAPGKERELVAAISRSGVTTRYADSVKGRVTISRDNAKHTVYLQMNSLKPEDTAVYYCNADPRLRQTRDYWGQGTQVTVSS", "polyreactivity (PSR sort gate)": "high polyreactivity"}, {"sequence": "QVQLVESGGGLVQAGGSLRLSCAASGNTFAGNAMGWYRQATGKERELVAAISWSGTRTYYADSVKGRFTISRDNAKNTVYLQMNSLKPEDTAVYYCAKLSTNKEYYWGQGTQVTVSS", "polyreactivity (PSR sort gate)": "high polyreactivity"}, {"sequence": "QVQLVESGGGLVQAGGSLRLSCAASGNTFAGYAMGWYRQAPGKEMEWVAAISTRGGITYYADSVKGRFTISRDNAKNTVYLQMNCLKPEDTAVYYCAAEFYYPWTYCSCDGRRVYYWGQGTQVTVSS", "polyreactivity (PSR sort gate)": "high polyreactivity"}, {"sequence": "QVQLVESGGGLVQAGGSLRLSCAASGNTFAHYVMGWYRQAPGKERELVASITSGGSTNYADSVKGRFTISRDNAKNTVYLQMNSLKPEDTAVYYCAVSLSYWYEAFTTRIDYYYWGQGTQVTVSS", "polyreactivity (PSR sort gate)": "high polyreactivity"}, {"sequence": "QVQLVESGGGLVQAGGSLRLSCAASGNTFANYAMGWYRQAPGKERELVAAITSNGGSTYYADSVKGRFTISRDNAKNTVYLQMNSLKPEDTAVYYCAADAAYYSGYDYWGQGTQVTVSS", "polyreactivity (PSR sort gate)": "low polyreactivity"}, {"sequence": "QVQLVESGGGLVQAGGSLRLSCAASGNTFASYVMGWYRQAPGNERELVAAISWSGGSTYYADSVKGRFTISRDNAKNTVYLQMNSLKPEDTAVYYCNAKRNVRYGYWGQGTQVTVSS", "polyreactivity (PSR sort gate)": "high polyreactivity"}]}]}
